Results from the supplement of paper PMC10899765.

What was measured:
Details in all cases: 20 nM; 72 h
MCF10A [1] = test: percent viability (nuclei count relative to siNT); higher = more viable cells
Experimental: (§1)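 After 72 h, cells were fixed and stained with Hoechst and anti-fibrillarin, and nucleoli per nucleus were counted with CellProfiler. Values are plate-adjusted percent effect for the one-nucleolus and 5+ nucleoli phenotypes, normalised to siNT (0%) and to the positive controls siNOL11 or siKIF11 (100%), as the mean of biological triplicates. Percent viability is the nuclei count relative to siNT.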

MCF10A [2] = test: 5+ nucleoli phenotype percent effect (relative to siNT 0% and siKIF11 100%); higher = more cells with five or more nucleoli
Experimental: as §1

MCF10A [3] = test: one-nucleolus phenotype percent effect (relative to siNT 0% and siNOL11 100%); higher = more cells with one nucleolus (ribosome biogenesis inhibition)
Experimental: as §1

Sequence	percent viability (MCF10A [1])	5+ nucleoli phenotype percent effect (MCF10A [2])	one-nucleolus phenotype percent effect (MCF10A [3])
UUCAUUUGCCUCCCAGCCUACA [hsa-miR-664b-3p]	28.7%	-29.2%	39.1%
UUCAUUUGGUAUAAACCGCGAUU [hsa-miR-579]	29%	-37.2%	45.1%
UUCCACUGCCACUACCUAAUUU [hsa-miR-6509-3p]	56.2%	-18.4%	-4.11%
UUCCAGCCCUGGUAGGCGCCGCG [hsa-miR-6720-5p]	17.9%	-23.2%	45%
UUCCAGCCCUUCUAAUGGUAGG [hsa-miR-6512-3p]	33.8%	-33.4%	39.8%
UUCCAUGCCUCCUAGAAGUUCC [hsa-miR-5581-3p]	57.3%	13.6%	-19.3%
UUCCCAGCCAACGCACCA [hsa-miR-7977]	63.8%	20.4%	-23.2%
UUCCCUAUCUCACUCUCCUCAG [hsa-miR-6883-3p]	58.5%	20.1%	-14.4%
UUCCCUUUGUCAUCCUAUGCCU [hsa-miR-204-5p]	100%	46%	-10.4%
UUCCCUUUGUCAUCCUUCGCCU [hsa-miR-211-5p]	75.8%	49.7%	-7.23%
UUCCGCCAGUCGGUGGCCGG [hsa-miR-6084]	90.2%	0.691%	-5.3%
UUCCUAUGCAUAUACUUCUUUG [hsa-miR-202-5p]	72.7%	12.8%	-12.4%
UUCCUGGGCUUCUCCUCUGUAG [hsa-miR-6783-3p]	88.9%	7.93%	-1.45%
UUCCUUCUGUUGUCUGUGCAG [hsa-miR-6868-3p]	28.1%	-19.2%	-3.76%
UUCGCCACUUCCCUCCCUGCAG [hsa-miR-6788-3p]	89.7%	18%	-13.9%
UUCGCGGGCGAAGGCAAAGUC [hsa-miR-3124-5p]	32.5%	18.7%	3.56%
UUCGGGCUGGCCUGCUGCUCCGG [hsa-miR-3944-3p]	30.8%	17.5%	-7.09%
UUCGGUAUACUUUGUGAAUUGG [hsa-miR-4798-5p]	78.1%	-0.701%	0.862%
UUCUAGAUGAGAGAUAUAUAUA [hsa-miR-4777-5p]	34.7%	-25.9%	29.8%
UUCUCAAGAGGGAGGCAAUCAU [hsa-miR-514b-5p]	43.1%	36.5%	-22.9%

Sequence	percent viability (MCF10A [1])	5+ nucleoli phenotype percent effect (MCF10A [2])	one-nucleolus phenotype percent effect (MCF10A [3])
UUCUCAAGGAGGUGUCGUUUAU [hsa-miR-513c-5p]	30%	3.99%	19.8%
UUCUCCAAAAGAAAGCACUUUCUG [hsa-miR-515-5p]	91.4%	3.02%	-9.79%
UUCUCCAAAAGGGAGCACUUUC [hsa-miR-519e-5p]	39.5%	4.42%	-3.64%
UUCUCGAGGAAAGAAGCACUUUC [hsa-miR-516a-5p]	127%	22.1%	-19.5%
UUCUCUCUGUCUUUCUCUCUCAG [hsa-miR-6873-3p]	35.2%	46.6%	-19%
UUCUCUUUCUUUAGCCUUGUGU [hsa-miR-4753-3p]	22.1%	-14.1%	27.3%
UUCUGAGCUGAGGACAG [hsa-miR-4303]	45.5%	-10.7%	-2.54%
UUCUGCCUCUGUCCAGGUCCUU [hsa-miR-5001-3p]	39.1%	-28.1%	19.3%
UUCUGCUGCCGGCCAAGGC [hsa-miR-6071]	27.8%	-25.7%	22.1%
UUCUGGAAUUCUGUGUGAGGGA [hsa-miR-1299]	58.7%	-3.13%	19.2%
UUCUGGAUAACAUGCUGAAGCU [hsa-miR-5706]	176%	51.3%	-32.6%
UUCUGGAUAUGAAGACAAUCAA [hsa-miR-4782-5p]	16.3%	-38.6%	44.9%
UUCUUUGUUUUUAAUUCACAG [hsa-miR-6844]	70%	8.6%	-15.7%
UUGAAAGGCUAUUUCUUGGUC [hsa-miR-488-3p]	36.8%	-44.7%	39.9%
UUGAACUGUUAAGAACCACUGGA [hsa-miR-203b-3p]	36.7%	-29.1%	29.5%
UUGAAGAGGAGGUGCUCUGUAGC [hsa-miR-4709-3p]	28%	-33%	29.5%
UUGAAGGGACAAGUCAGAUAUGCC [hsa-miR-6864-5p]	25.6%	-1.47%	17.8%
UUGAAUUCUUGGCCUUAAGUGAU [hsa-miR-4452]	42.1%	-9.56%	-19.4%
UUGAGAAUGAUGAAUCAUUAGG [hsa-miR-580]	91.4%	25.6%	-18.3%
UUGAGGAAAAGAUGGUCUUAUU [hsa-miR-3915]	36.5%	-19%	-3.96%

Sequence	percent viability (MCF10A [1])	5+ nucleoli phenotype percent effect (MCF10A [2])	one-nucleolus phenotype percent effect (MCF10A [3])
UUGAGGAGACAUGGUGGGGGCC [hsa-miR-4689]	103%	2.8%	12.3%
UUGAGGGGAGAAUGAGGUGGAGA [hsa-miR-6734-5p]	35%	2.95%	-5.42%
UUGAUCUCGGAAGCUAAGC [hsa-miR-7641]	82.6%	6.46%	-20.1%
UUGCACUCUGGCCUUCUCCCAGG [hsa-miR-7703]	25%	-11.1%	23%
UUGCAGCUGCCUGGGAGUGACUUC [hsa-miR-1301]	49%	-32.5%	26.9%
UUGCAGCUGCGGUUGUAAGGU [hsa-miR-5047]	36.3%	-30.3%	11.1%
UUGCAUAGUCACAAAAGUGAUC [hsa-miR-153]	116%	83%	-31.1%
UUGCAUAUGUAGGAUGUCCCAU [hsa-miR-448]	75.6%	34%	-2.74%
UUGCAUGUCAGAUUGUAAUUCCC [hsa-miR-4666b]	64.4%	-10.4%	5.21%
UUGCCACACUGCAACACCUUACA [hsa-miR-3064-3p]	39.1%	-31.2%	8.14%
UUGCCAGGGCAGGAGGUGGAA [hsa-miR-5006-5p]	69.9%	-13.7%	0.389%
UUGCCAUACAUAGACUUUAUU [hsa-miR-5590-5p]	44.8%	-33.2%	33.6%
UUGCCAUGUCUAAGAAGAA [hsa-miR-4659b-5p]	42%	-38.1%	29.7%
UUGCCUGCCCUCUUCCUCCAG [hsa-miR-6894-3p]	24.2%	-20.1%	22.3%
UUGCUAAGUAGGCUGAGAUUGA [hsa-miR-4639-5p]	22.7%	-11.6%	11.8%
UUGCUAGUUGCACUCCUCUCUGU [hsa-miR-449c-3p]	27.2%	-15.1%	7.23%
UUGCUCACUGUUCUUCCCUAG [hsa-miR-1178-3p]	50.3%	-31.4%	0.794%
UUGCUCCUGACUCUGUGCCCACA [hsa-miR-6772-3p]	32.5%	-4.99%	1.77%
UUGCUCUGAGCUCCGAGAAAGC [hsa-miR-5691]	48.2%	-16.4%	-10.3%
